The values that follow come from patent publication US9580487B2, “Method of treating stomach or bowel-related disorders by administering glucagon-like-peptide-2 (GLP-2) analogues” (Zealand Pharma A/S, priority 2005, dated 2017).

Entries after “also recorded” stand apart in the source; their conditions may differ. No end group written: not given here.

Data set [1] is described as follows: Chemical stability testing: incubation in HCl, NaOH, H2O2 or NH4HCO3 at 40° C., remaining purity by RP-HPLC. Type of data set: physicochemical. As to conditions: for Stability during acid hydrolysis (in words): 0.1 M HCl, 12 days; for Stability during acid hydrolysis (in words) / Purity H2O2 0.5% 3 days / Purity HCl 0.1M 12 days / Purity NH4HCO3 0.1M 6 days: 40° C.; for Purity H2O2 0.5% 3 days / Purity HCl 0.1M 12 days / Purity NH4HCO3 0.1M 6 days: 2 mg/ml, relative to the purity at T=0; for Purity H2O2 0.5% 3 days / Purity HCl 0.1M 12 days: RP-HPLC; for Purity NH4HCO3 0.1M 6 days: pH 8, RP-HPLC. Summed up: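 GLP-2 analogues at 2 mg/ml final were stressed at 40° C in the dark in 0.1 M HCl, 0.01M NaOH, 0.1 M NH4HCO3 or 0.5% H2O2. Remaining intact main peak was measured by RP-HPLC relative to T=0 purity, with degradants identified by LC-MS.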

Another data set concerns male C57BL mice. Put plainly: Dose-response effect on intestinal growth (SI mass, SI-Colon Sensitivity Index, colon and stomach mass). Type of data set: in vivo. The settings on record: 5-405 nmol/kg s.c. b.i.d. for three days. Summed up: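 Male C57BL mice (n=6/group) got 5, 15, 45, 135 or 405 nmol/kg s.c. twice daily for three days; equimolar [Gly2]GLP-2 and PBS pH 7.4 vehicle groups received the same regimen. SI-Colon Sensitivity Index was SI mass relative to colon mass, normalized to [Gly2]GLP-2 at each dose; means±SEM.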

For “[Gly2, Glu3, Leu10, Ser11, Ala16,24,28]hGLP-2(1-33)-NH2 [Compound 1857]”, in data set [1], the “Stability during acid hydrolysis (in words)” value is given as “tendency of slightly higher stability”, the “Purity H2O2 0.5% 3 days” value came to 59%, the “Purity HCl 0.1M 12 days” value came out at 86% and the “Purity NH4HCO3 0.1M 6 days” value is reported as 96%. Also, in the data set with male C57BL mice, the “SI-Colon Sensitivity Index (SI mass relative to colon mass) relative to [Gly2]GLP-2” value is “increased maximal small intestinal sensitivity relative to [Gly2]GLP-2; also recorded: increased selectivity for causing growth of the small intestine relative to the colon” and the “Small intestinal mass (SI-BW ratio), maximal response relative to [Gly2]GLP-2” value is “maximal responses that were significantly greater than [Gly2]GLP-2”.

Consider “[Gly2, Glu3, Thr5, Ser8, Leu10, Ala11,16,24,28]hGLP-2(1-33)-NH2 [Compound 1855]”, for which, in data set [1], the “Stability during acid hydrolysis (in words)” value is “tendency of slightly higher stability”, the “Purity H2O2 0.5% 3 days” value is 14%, the “Purity HCl 0.1M 12 days” value came out at 85% and the “Purity NH4HCO3 0.1M 6 days” value came out at 97%. For the same substance, in data set [1] (0.5% H2O2, 40° C., 3 days), the “Stability under accelerated oxidation (in words)” value is recorded as “unexplainable low stability”. In addition, in the data set with male C57BL mice, the “SI-Colon Sensitivity Index (SI mass relative to colon mass) relative to [Gly2]GLP-2” value is “increased maximal small intestinal sensitivity relative to [Gly2]GLP-2; also recorded: increased selectivity for causing growth of the small intestine relative to the colon” and the “Small intestinal mass (SI-BW ratio), maximal response relative to [Gly2]GLP-2” value is “maximal responses that were significant greater than [Gly2]GLP-2”.

Regarding “[Gly2, Glu3, Thr5, Ser8, Leu10, Ala11,16,24,28]hGLP-2(1-33)-(Lys)6-NH2 (HGEGTFSSELATILDALAARDFIAWLIATKITDKKKKKK-NH2) [Compound 1848]”, in data set [1], the “Purity H2O2 0.5% 3 days” value worked out at 68%, the “Purity HCl 0.1M 12 days” value was 63% and the “Purity NH4HCO3 0.1M 6 days” value turned out to be 93%. Besides, in the data set with male C57BL mice, the “SI-Colon Sensitivity Index (SI mass relative to colon mass) relative to [Gly2]GLP-2” value was “increased maximal small intestinal sensitivity relative to [Gly2]GLP-2; also recorded: increased selectivity for causing growth of the small intestine relative to the colon” and the “Small intestinal mass (SI-BW ratio), maximal response relative to [Gly2]GLP-2” value was “maximal responses that were significant greater than [Gly2]GLP-2”. Further, in the data set on male C57BL mice (vs vehicle), the “Growth stimulation of small intestine, colon and stomach mass” value was “only produced dose-dependent growth stimulation in the small intestine”.

Turning to “[Gly2, Glu3, Ser8,11, Leu10, Ala16,24,28]hGLP-2(1-33)-(Lys)6-NH2 (HGEGSFSSELSTILDALAARDFIAWLIATKITDKKKKKK-NH2) [Compound 1846]”, in data set [1], the “Purity H2O2 0.5% 3 days” value came out at 64%, the “Purity HCl 0.1M 12 days” value came to 70% and the “Purity NH4HCO3 0.1M 6 days” value came out at 82%. In the data set with male C57BL mice, the “SI-Colon Sensitivity Index (SI mass relative to colon mass) relative to [Gly2]GLP-2” value was “increased maximal small intestinal sensitivity relative to [Gly2]GLP-2; also recorded: increased selectivity for causing growth of the small intestine relative to the colon” and the “Small intestinal mass (SI-BW ratio), maximal response relative to [Gly2]GLP-2” value is “maximal responses that were significant greater than [Gly2]GLP-2”.
